Laboratory results taken from PMC3383726.

Target: chimera of the human sst5 receptor with the carboxyl-terminal tail of the human sst2 receptor (hsst5-sst2CT) (human)
Experiment: radioligand binding; competition against 0.05 nM [125I-Tyr11]-SS-14 on membrane preparations (30 µg protein) of stably transfected HEK293 cells; competitor 10^-12 to 10^-6 M; 10 mM HEPES, 5 mM MgCl2, 5 µg/ml bacitracin, pH 7.5; 45 min, room temperature; vacuum filtration

IC50: 0.0303 µM
Substance: Somatostatin (SS-14) (from UniProt P61278 103-116) (peptide)
